Data as given in patent US20060134740A1.
The star is where a group is joined. AMC = Cc1cc(=O)oc2cc(N*)ccc12

Assays:
[1] = molecular target: subtilisin BPN' mutant S149 (Bacillus amyloliquefaciens) (UniProt P00782); assay: transient state kinetics with fluorogenic substrate
[2] = molecular target: subtilisin BPN' mutant S149 (Bacillus amyloliquefaciens) (UniProt P00782); assay: transient state kinetics with fluorogenic substrates
[3] = molecular target: fusion of the pR8 prodomain onto the N-terminus of the 56 amino acid B domain (GB) of streptococcal Protein G, P06654

Row | Ks [1] [µM] | fold preference over sDVRAF-AMC [2] [fold] | Binder | cleavage of the fusion protein [3]
1 | 1 | 5 | {code s}-DFRAM-{AMC} [fluorogenic pentapeptide substrate sDFRAM-AMC] | 
2 |  |  | wild type subtilisin BPN' (protein) AQSVPYGVSQIKAPALHSQGYTGSNVKVAVIDSGIDSSHPDLKVAGGASMVPSETNPFQDNNSHGTHVAGTVAALNNSIGVLGVAPSASLYAVKVLGADGSGQYSWIINGIEWAIANNMDVINMSLGGPSGSAALKAAVDKAVASGVVVVAAAGNEGTSGSSSTVGYPGKYPSVIAVGAVDSSNQRASFSSVGPELDVMAPGVSIQSTLPGNKYGAYNGTSMASPHVAGAAALILSKHPNWTNTQVRSSLENTTTKLGDSFYYGKGLINVQAAAQ | The fusion protein was rapidly and specifically cleaved to release GB from pR8
3 | 5 |  | {code s}-DVRAF-{AMC} [fluorogenic substrate sDVRAF-AMC] | 
